The source of these data is US20210292423A1 (published 2021).

In assay [1] the target is T1, Macaca fascicularis CD123 Fc-fusion protein (Macaca fascicularis).
T1 construct: also called cyno CD123-Fc
Description: SPR Proteon XPR36, rat IgG captured, CD123-Fc analyte. As for the experimental part: (§1) Screening of anti-CD123 rat IgGs for binding affinities to human CD123 and cross-reactivities to cyno CD123 was performed with hybridoma supernatants using a Proteon XPR36 (Biorad) in a one-shot kinetics approach. A capture assay was established using a goat anti-rat IgG (112-005-071, Jackson Immuno Research). The capture antibody was coated on GLC chips (176-5011, Biorad) to approx. 8000 RU in the vertical direction using the amine coupling kit (176-2410, Biorad). […] Binding kinetics with human and cyno CD123-Fc fusion protein was measured at 100 μl/min in the horizontal direction with 120 sec. and 600 sec. for association and dissociation, respectively. The CD123-Fc proteins were used in twofold dilutions from 6 nM to 100 nM. PBSET buffer (176-2730, Biorad) was used as assay buffer. Regeneration was achieved by injection of 10 mM Glycine buffer pH 1.5 for 18 sec at 30 μl/min. Data processing and analysis was performed using ProteonManager software v3.0. Fitting of the sensorgrams was done with a 1:1 Langmuir model.

The target of assay [2] is T2, human CD123 Strep-II tagged Fc-fusion protein (human).
T2 construct: also called human CD123-Fc; recombinant CD123
T2 sequence (chain, as listed by the source limits assumed): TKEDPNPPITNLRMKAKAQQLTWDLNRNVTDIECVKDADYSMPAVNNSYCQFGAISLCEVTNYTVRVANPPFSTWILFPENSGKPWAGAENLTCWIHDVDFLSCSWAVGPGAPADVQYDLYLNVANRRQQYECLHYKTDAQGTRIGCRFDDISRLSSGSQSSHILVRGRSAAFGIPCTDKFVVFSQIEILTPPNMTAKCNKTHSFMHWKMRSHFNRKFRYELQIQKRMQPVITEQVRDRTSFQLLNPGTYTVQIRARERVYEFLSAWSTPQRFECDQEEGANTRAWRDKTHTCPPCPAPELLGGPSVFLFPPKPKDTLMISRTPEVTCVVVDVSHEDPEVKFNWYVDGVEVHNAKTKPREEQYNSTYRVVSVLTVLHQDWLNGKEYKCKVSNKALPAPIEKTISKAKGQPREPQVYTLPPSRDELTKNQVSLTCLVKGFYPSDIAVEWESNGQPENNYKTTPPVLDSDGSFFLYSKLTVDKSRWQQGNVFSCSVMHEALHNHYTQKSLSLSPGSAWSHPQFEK
The assay is described as above. As for the experimental part:
as §1

Assay [3] concerns the target T3, human CD123 (IL3RA) on cells (human, UniProt P26951 19-378).
T3 construct: also called CD123 transfected HEK293; THP-1
Description: flow cytometry, CD123 transfected HEK293, hybridoma supernatant. As for the experimental part:
Cells were resuspended in 200 μl Stain Buffer with FBS per well and were measured using the MACSQuant (Miltenyi Biotec) or LSRII (BD) flow cytometer. Further data analyses were performed using the FlowJo software (Tree Star, Inc.). Read out was percentage of cells positive for antibody binding. Cells treated only with the secondary but no primary antibody were used to set the gates. Curves were calculated by XLfit (Algorithm 205).

T1 sequence (chain, as listed by the source limits assumed): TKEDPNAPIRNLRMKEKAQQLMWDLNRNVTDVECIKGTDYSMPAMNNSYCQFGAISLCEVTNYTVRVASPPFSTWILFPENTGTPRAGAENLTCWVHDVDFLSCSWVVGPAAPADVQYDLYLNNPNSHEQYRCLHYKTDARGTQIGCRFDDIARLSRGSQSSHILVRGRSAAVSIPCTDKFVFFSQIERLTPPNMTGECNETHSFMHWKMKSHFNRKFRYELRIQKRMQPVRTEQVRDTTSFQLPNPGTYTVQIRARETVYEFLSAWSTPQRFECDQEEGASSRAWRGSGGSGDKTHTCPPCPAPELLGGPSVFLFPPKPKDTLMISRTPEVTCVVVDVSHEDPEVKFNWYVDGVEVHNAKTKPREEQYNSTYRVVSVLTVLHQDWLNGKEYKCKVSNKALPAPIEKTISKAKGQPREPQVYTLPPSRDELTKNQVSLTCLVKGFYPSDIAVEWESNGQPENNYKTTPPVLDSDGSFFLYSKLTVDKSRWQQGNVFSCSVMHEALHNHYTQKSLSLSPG
T3 sequence (P26951 19-378): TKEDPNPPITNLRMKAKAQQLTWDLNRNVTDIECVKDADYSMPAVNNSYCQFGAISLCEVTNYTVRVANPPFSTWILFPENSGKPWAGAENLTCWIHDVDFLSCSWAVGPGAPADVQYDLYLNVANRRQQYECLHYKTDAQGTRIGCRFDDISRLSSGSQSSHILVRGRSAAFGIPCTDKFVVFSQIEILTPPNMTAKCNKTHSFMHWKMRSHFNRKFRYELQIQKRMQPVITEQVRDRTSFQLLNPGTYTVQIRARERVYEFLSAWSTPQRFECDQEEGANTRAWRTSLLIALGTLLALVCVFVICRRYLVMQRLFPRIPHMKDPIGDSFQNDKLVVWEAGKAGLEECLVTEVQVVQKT

B1: 5A5-B4 anti-CD123 rat IgG (hybridoma supernatant) (antibody, V domains shown)
VH: QIQIVQSGSDVTSTCNGCGTCYFSGFSLSTTGICVSWIRQPSGKGQEWLADFCWDDGKGYNPSLKNRLSISKDTSNNQVFLKITSVDTADTATYYCARRRVYYGIYFDYWGQGVMVTVSS
VL: DIVMTQSPALAVSPGERVSISCRASNSVSTRMHWYQQKPGQQPKLLIYGASNLESGVPARFSGSGSGTDFTLTIDPVEADDIATYFCQQSWNDPLTFGSGTKLEIK
notes: rat IgG; also called BFX - 5A5
Usually Kd stands for the equilibrium constant for the complex coming apart. Usually koff stands for a measure of how fast the partners let go of each other. As a reminder, the kon is a measure of how fast the partners come together. A word on the EC50: it is the concentration giving half of the maximal effect. A lower EC50 goes with an effect from little substance. As for B1, the Kd in assay [1] was 0.05 nM. Besides, in assay [2], the affinity, expressed as Kd, was 1.1 nM; the off-rate (koff) was 0.00012 s⁻¹; the on-rate (kon) is 130000 M⁻¹ s⁻¹. The same molecule returned an EC50 in assay [3] of 10.1 ng/mL.

B2: 6C10-C4 anti-CD123 rat IgG (hybridoma supernatant) (antibody, V domains shown)
VH: EVKLQESGPSLVQPSETLSLTCTVSGFSLTSYSVHWVRQHSGKSLEWMGRMWNDGDTSYNSAFTSRLSISRDTSKGQVFLKMNSLQTEDTGTYYCARGHRTPFDYWGQGVMVTVSS
VL: DIVMTQSPSSLAVSAGETVTINCKSSQSFLSSGDERNYVAWYQHKPGQSPKLLIYWASTRHSGVPDRFIGSGSGTDFTLTISSVQAEDLAIYYCQQYYDTPLTFGSGTKLEIK
notes: rat IgG; also called BFX - 6C10
B2: in assay [1], binding was put at a Kd of 0.79 nM. In assay [2], this molecule registered a dissociation constant Kd of 0.75 nM, an off-rate constant (koff) of 0.00014 s⁻¹ and a kon of 180000 M⁻¹ s⁻¹. Moreover, in assay [3], a half-maximal effect (EC50) was put at 6.1 ng/mL.

B3: 9B8-G6 anti-CD123 rat IgG (hybridoma supernatant) (antibody, V domains shown)
VH: EVKLQESGPSLVQSSQTLSLTCTVSGFSLTSYHIHWVRQPPGKGLEWMGVMWSDGDTSYSSALKSRLSISRDTSQSQVFLKMNSLQTEDTATYYCARGDYSSYIYLWFAYWGQGTLVTVSS
VL: DIVMTQSPSSLAVSAGETVTINCKSSQSFLSSGDERNYVAWYQHKPGQSPKLLIYWASTRHSGVPDRFIGSGSGTDFTLTISSVQAEDLAIYYCQQYYDTPLTFGSGTKLEIK
notes: rat IgG; also called BFX - 9B8
In turn, B3 gave a dissociation constant (Kd) in assay [1] of 0.17 nM. In assay [2], this molecule displayed a dissociation constant Kd of 0.19 nM, a koff of 0.00028 s⁻¹ and a kon of 1.5e+06 M⁻¹ s⁻¹. Besides, in assay [3], the half-maximal effective concentration (EC50) came out at 1.2 ng/mL.

B4: 9D7-C8 anti-CD123 rat IgG (hybridoma supernatant) (antibody, V domains shown)
VH: EVKLQESGPSLVQSSQTLSLTCTVSGFSLTSYHIHWVRQTPGKGLEWMGVMWSDGDTSYNSALKSRLSISRDTSQSQVFLKMNSLQTEDTATYYCARGYYSSYLYLWFAYWGQGTLVTVSS
VL: DIVMTQSPSSLAVSEGETVTINCKSSQSFLSSGDGKNYVAWYQYKPGQSPKLLIYWASTRQSGVPDRFIGSGSGTDFTLTISTVQAEDLAIYYCQQYYDTPLTFGSGTKLEIK
notes: rat IgG; also called BFX - 9D7
Take B4: binding in assay [1] was characterised by a dissociation constant (Kd) of 0.07 nM. In assay [2], this molecule showed a Kd of 0.3 nM, a koff of 0.00032 s⁻¹ and an on-rate (kon) of 1e+06 M⁻¹ s⁻¹. The molecule also came in with an EC50 in assay [3] of 0.9 ng/mL.

B5: 3E3-D3 anti-CD123 rat IgG (hybridoma supernatant) (antibody, V domains shown)
VH: QVQLQESGPGLVQPSQTLSLTCTVSGFSLTTYDVHWVRQPPGKGLEWMGRIQNGGITDYNSALKSRLIISRDTSKSQVFLKMNSVQTEDTAMYFCAKTGSYFYAFDHWGQGTLVTVSS
VL: QFVLTQPNSVSTNLGSTVKLSCKRNTGNIGSNYVNWYQQHEGRSPTTMIYRDDKRPDGVPDRFSGSIDRSSNSALLTINNVQTEDEADYFCQSYSSGINIIFGGGTKLTVL
notes: rat IgG; also called BFX - 3E3
As to B5, the equilibrium dissociation constant (Kd) in assay [1] came to 0.12 nM. In assay [2], the Kd amounted to 0.4 nM, the off-rate constant (koff) turned out to be 6.4e-05 s⁻¹ and the kon turned out to be 160000 M⁻¹ s⁻¹. Also, the half-maximal effective concentration (EC50) in assay [3] is 2 ng/mL.

B6: 8B11-B7 anti-CD123 rat IgG (hybridoma supernatant) (antibody, V domains shown)
VH: QVQLQESGPTLVNPGDSVKMSCKASGYTFTDHIIHWVKQSHGKSLEWIGYINPYSGGANYNGKFKSKATLTIDKSSSTAYMEFSRLTSGDSAIYYCALNYGSYYAMDAWGQGTSVTVSS
VL: DIQMTQSPASLSASLGETVTIECRTSKDIYSNLAWFQQEPGNSPQLLIYDASNLADGVPSRFSGSGSGTQYSLQINNLQSEDVASYFCHQYNNYPYTFGTGTKLELK
notes: rat IgG; also called BFX - 8B11
For the molecule B6, the Kd in assay [1] was 0.1 nM. In assay [2], binding was put at a Kd of 0.01 nM, the off-rate constant (koff) came to 6.2e-06 s⁻¹ and the kon stood at 470000 M⁻¹ s⁻¹. This molecule also displayed a concentration for a half-maximal effect (EC50) in assay [3] of 0.4 ng/mL.

B7: 9F6-G3 anti-CD123 rat IgG (hybridoma supernatant) (antibody, V domains shown)
VH: QVQLQESGPTLVKPGDSVKMSCKASGYTFTDYIIHWVKQSHGKSLEWIGYINPYSDGTNYNEKFKSKATLTVDKSTSTAYMEFSRLTSEDSAIYFCALNYGSYYAMDAWGQGTSVTVSS
VL: DIQMTQSPASLSASLGETVTIECRPSEDIHSNVAWYQQKPGNSPQLLIYDASNLADGVPSRFSGSGSGTQYSLKINSLQSEDVASYFCHQYNIYPYTFGSGTKLELK
notes: rat IgG; also called BFX - 9F6
In turn, B7 displayed a Kd in assay [1] of 0.5 nM. In assay [2], this molecule displayed a Kd of 0.04 nM, an off-rate (koff) of 6.7e-06 s⁻¹ and an on-rate constant (kon) of 180000 M⁻¹ s⁻¹. This molecule had a 50% effective concentration (EC50) in assay [3] of 1.3 ng/mL.

B8: 2F8-D6 anti-CD123 rat IgG (hybridoma supernatant) (antibody, V domains shown)
VH: QVQLKESGPGLVQPSQTLSLTCTVSGFSLTSYGVSWVRQPPGKGLEWIATISSAGSTYYDLVLKSRLSITRDTSKSQVFLKVHSLQTEDTAIYLCARDAPVFNYGSYNAMDSWGQGTSVTVSS
VL: DIQMTQSPSFLSATVGDRVTINCKASQNINKYLNWYQQKLGEAPKRLIYNTNSLQTGIPSRFSGSGSGTDYTLTISSLQPEDVATYFCLQHKSGLTFGSGTKLEIK
notes: rat IgG; also called BFX - 2F8
For the molecule B8, in assay [1], the Kd was determined as 0.51 nM. In assay [2], this molecule came in with an equilibrium dissociation constant (Kd) of 0.53 nM, a koff of 6.6e-05 s⁻¹ and an association rate constant (kon) of 130000 M⁻¹ s⁻¹. In assay [3], this molecule gave an EC50 of 3.4 ng/mL.

B9: 6B10-E4 anti-CD123 rat IgG (hybridoma supernatant) (antibody, V domains shown)
VH: EVQLVESGGGLVQPGRSLKLSCAASGFTFSHYNMAWVRQAPKKGLEWVATITYDDHSTYYRDSVKGRFTISRDTAKSTLYLQMDSLRSEDTATYYCARLVNYAFAYWGQGTLVTVSS
VL: NIVMTQSPKSMSISVGDRVTMNCKASQTVGNNIAWYQQKPGLSPQLLIDYASNRYTGVPNRFTGGGYGTDFILTINSVQAEDAAFYYCQRMYNSPTFGGGTKLELK
notes: rat IgG; also called BFX - 6B10
B9 showed a dissociation constant (Kd) in assay [1] of 0.1 nM. In assay [2], the affinity, expressed as Kd, was 0.15 nM; the off-rate constant (koff) amounted to 1.5e-05 s⁻¹; the association rate constant (kon) turned out to be 230000 M⁻¹ s⁻¹. The molecule further showed a concentration for a half-maximal effect (EC50) in assay [3] of 5 ng/mL.
